Source: the supplement of paper PMC9170038

Test system: MS2 coat protein
Test: apparent KD of MS2 coat protein; designed switch direction (-1 OFF switch, 1 ON switch): 1; higher = weaker reporter binding
How it was run: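 Designed RNA switches were transcribed on Illumina chips by stalled E. coli RNA polymerase and titrated with SNAP-549-labelled MS2 coat protein from 0.7 or 1.5 nM, doubling to 3 µM. Step length ran from 0.8–1.5 h at the lowest concentration to 10–20 min at the highest. The apparent KD is the median over clusters for each design, from curve-fitted normalised cluster fluorescence.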

[1] = Eterna round: R95, input ligand: FMN 200 uM
[2] = Eterna round: R95, input ligand: microRNA oligo, concentration not stated
[3] = Eterna round: R95, input ligand: none
[4] = input ligand: microRNA oligo, concentration not stated

| Sequence | apparent KD of MS2 coat protein [1] [nM] | apparent KD of MS2 coat protein [2] [nM] | apparent KD of MS2 coat protein [3] [nM] | apparent KD of MS2 coat protein [4] [nM] | apparent KD of MS2 coat protein (input ligand: FMN 200 uM) [nM] | apparent KD of MS2 coat protein (input ligand: none) [nM] |
| --- | --- | --- | --- | --- | --- | --- |
| GAAUAACAUGAGGAUCACCCAUGUAAUAUAAUGGGAGGAUAUCUGAAUUAAUUAUAUUAAGGAGAAGGCCUAUAUG [Mat - Same State 1 - Mod of Eli - D54] (puzzle: Same State 1) | 51.6 | 204 | 260 |  |  |  |
| GACAAUCUAUCUGAGGAUAUCAUGAGAAGAACAUGAGGAUCACCCAUGUGCAGGAAAACUGCAUAUGAGAAGGCAGAUAGAUUGA [Mat - Same State 2 - Mod - D16] (puzzle: Same State 2) | 43.7 | 1600 | 1820 |  |  |  |
| GACCGCGAGGGAGGAUAUGGAGCCUUAUUGGCUCCAGAAGGUCCAUAAGGGACAUGAGGAUCACCCAUGUGGGUUGAAGCGGUC [Fiskers NG1ss - 36] (Eterna round: R96, puzzle: Same State NG 1) |  |  |  | 108 |  |  |
| GAGAAUCUAUCUCAGGAUAUCAUGUCAAAGACAUGAGGAUCACCCAUGUACCAGGAAACUGGUUAUGAGAAGGGAGAUAGAUUCA [Mat - Same State 2 - Mod - D35] (puzzle: Same State 2) | 103 | 26.2 | 224 |  |  |  |
| GAGAGAUGAUUAGGAUAUACGGUGAUAAUGAUAGUAGAAGGAAUUGACAUGAGGAUCACCCAUGUGGGAAUAAUCCAGAGAGAG [Parity 22 - Jieux - Same State NG 1] (Eterna round: R96, puzzle: Same State NG 1) |  |  |  | 127 | 100 | 162 |
| GAGGAUGAUUUACAGGAUAUAUAGGAGAUGACAUGAGGAUCACCCAUGUAAGAGAGAGGAGGGAGAUAGAAGGGUAAGGGAUGUG [JR_SS2_Sub42] (puzzle: Same State 2) | 44.3 | 42.2 | 59.5 |  |  |  |
| GAGGGCGGAAACAACAUGAGGAUCACCCAUGUUGCCGAAAGGCAGGAUAUCCGGCGAAAGCAGAAGGAGAAGGGUCGAAAAGAA [AK SSNG3-V2-41] (Eterna round: R96, puzzle: Same State NG 3) |  |  |  | 20 | 20.7 | 24.1 |
| GAGUAGUUAAAAGGAUAUUGAUUAUUGUAGGAUCAAGAAGGUUUUAACAUGAGGAUCACCCAUGUAGGACUAUUCCUGUGAAAA [Parity 92 - Jieux - Same State NG 1] (Eterna round: R96, puzzle: Same State NG 1) |  |  |  | 10.9 |  |  |
| GAGUAGUUAAAAGGAUAUUGAUUAUUGUAGGAUCAAGAAGGUUUUAACAUGAGGAUCACCCAUGUAGGACUAUUCCUGUGUAUC [Parity 90 - Jieux - Same State NG 1] (Eterna round: R96, puzzle: Same State NG 1) |  |  |  | 12 |  |  |
| GAGUAGUUGAAAGGAUAUGCAUUGUUAUAGAAUGCAGAAGGUUCUAACAUGAGGAUCACCCAUGUAGGACUAUUCCUGUGUAUC [Parity 80 - Jieux - Same State NG 1] (Eterna round: R96, puzzle: Same State NG 1) |  |  |  | 7.83 |  |  |
| GAGUAGUUGAAAGGAUAUUGAUUAUUGUAGGAUCAAGAAGGUUCUAACAUGAGGAUCACCCAUGUAGGACUAUUCCUGUGUAUC [Parity 89 - Jieux - Same State NG 1] (Eterna round: R96, puzzle: Same State NG 1) |  |  |  | 8.63 |  |  |
| GAGUAGUUGGGAGGAUAUGCAUUGUUAUAGAAUGCAGAAGGUUUUAACAUGAGGAUCACCCAUGUAGGACUAUUCCUGUGUAUC [Parity 71 - Jieux - Same State NG 1] (Eterna round: R96, puzzle: Same State NG 1) |  |  |  | 11.9 | 12.9 | 15.6 |
| GAGUGGAAGUAAGGAUAUAUAAUGAUAAUCACAGUAGAAGGUACUAACAUGAGGAUCACCCAUGUAGGACUAUACCAGAGAGGG [Parity 44 - Jieux - Same State NG 1] (Eterna round: R96, puzzle: Same State NG 1) |  |  |  | 12.3 |  |  |
| GAGUGGCAGUUAGGAUAUGUAGUGAUAAUGAUAACAGAAGGAACAGACAUGAGGAUCACCCAUGUAGGACUAAUCCAGAGAGAG [Parity 35 - Jieux - Same State NG 1] (Eterna round: R96, puzzle: Same State NG 1) |  |  |  | 25.7 | 26.2 | 34.2 |
| GAGUGGCGGUUAGGAUAUACAGUGAUAAUGAUAGUAGAAGGAACUGACAUGAGGAUCACCCAUGUAGGACUAAUCCAGAGAGAG [Parity 31 - Jieux - Same State NG 1] (Eterna round: R96, puzzle: Same State NG 1) |  |  |  | 21.7 | 43.6 | 33.7 |
| GAUCGUUUGAUAGGAUAUCGCUAUACAUGAGGAUCACCCAUGUUUACCACGCUGGUUUUUCAUACCGAGAAGGAUUCUGAUGAC [salish99_SSNG02_r04_007] (Eterna round: R96, puzzle: Same State NG 2) |  |  |  | 15.5 | 21.5 | 26.6 |

| Sequence | apparent KD of MS2 coat protein [1] [nM] | apparent KD of MS2 coat protein [2] [nM] | apparent KD of MS2 coat protein [3] [nM] | apparent KD of MS2 coat protein [4] [nM] | apparent KD of MS2 coat protein (input ligand: FMN 200 uM) [nM] | apparent KD of MS2 coat protein (input ligand: none) [nM] |
| --- | --- | --- | --- | --- | --- | --- |
| GAUUAACAUGAGGAUCACCCAUGUCGUUUUAUGGGAGGAUAUACGUGGACCGUAGUCCGCGUAGAAGGCCUAAUUG [JL-ss1-3.23 janelle mod] (puzzle: Same State 1) |  | 97.3 |  |  |  |  |
| GCAUUACAUGAGGAUCACCCAUGUCUCUAAAGUCGAGGAUAUGGGCAGGUUAUAUCCGAACCAGAAGGCGAAUUGC [SS1 Teenbexe 10] (puzzle: Same State 1) | 138 | 244 | 198 |  |  |  |
| GCCAACUUAUGAGGAUAUGGCACCUUAUUGGUGCCAGAAGGCAUGUGAAUUCACAUGAGGAUCACCCAUGUAUUAUAGUUGGCA [Fiskers NG1ss - 20] (Eterna round: R96, puzzle: Same State NG 1) |  |  |  | 221 | 32.2 | 356 |
| GCCCAUAGUAUAUGGAUACAAGCUUUUUGACAUGAGGAUCACCCAUGUACUCGUCUUAUGUGCAGUCCGUAGACUGC [JL-shm-2.20 Brourd mod] (puzzle: Sensor for hsa-mir-208a) | 26.8 | 15.8 |  |  |  |  |
| GCCGCAAGGGCAGGAUAUGGGUCCAGAGUGCAAAUGCACUCCGGUACAUGAGGAUCACCCAUGUCCCAGAAGGGCCCAAGCGGC [Bilaatdi] (Eterna round: R96, puzzle: Same State NG 2) |  |  |  | 144 | 12.8 | 163 |
| GCCGCGUUUCGCGCCUACAUGAGGAUCACCCAUGUUUGUAGGCAGGAUAUCGCCCGCUUUGCGGGCGAGAAGGGCUGUUGUGGC [salish99_SSNG3_R04_020] (Eterna round: R96, puzzle: Same State NG 3) |  |  |  | 38.8 | 59 | 55.5 |
| GCCGCGUUUCGCGCCUACAUGAGGAUCACCCAUGUUUGUAGGCAGGAUAUCGUCCGCUCUGCGGGCGAGAAGGGCUGUUGUGGG [salish99_SSNG3_R04_023] (Eterna round: R96, puzzle: Same State NG 3) |  |  |  | 139 | 214 | 179 |
| GCCGGCUGGUGAGGAUAUGGCGCCUUGUUGGUGCCAGAAGGCAUGUCAAUUGACAUGAGGAUCACCCAUGUGUUGUCGUUGGCG [salish99_SSNG1_r04_611] (Eterna round: R96, puzzle: Same State NG 1) |  |  |  | 110 | 808 | 459 |
| GCGAAAUGAUGUGACAUGAGGAUCACCCAUGUAACCUCAUGUAAGGAUAUCGGAAAAAAAAAAACCGAGAAGGUAUGGUCACGC [AK SSNG3-V2-27.1] (Eterna round: R96, puzzle: Same State NG 3) |  |  |  | 86.4 | 124 | 216 |
| GCGAGCGUACUUGCAACAUGAGGAUCACCCAUGUUAACUGGACAGGAUAUGGUACCGUUUCGGUACCAGAAGGGUUCCUCAUUG [JL SSNG3 3.63] (Eterna round: R96, puzzle: Same State NG 3) |  |  |  | 34.7 | 319 | 437 |
| GCGAGCGUACUUGCAGACAUGAGGAUCACCCAUGUAACUGGACAGGAUAUGGUACCGUUUCGGUACCAGAAGGGUCCAUAUGUC [JL SSNG3 3.54] (Eterna round: R96, puzzle: Same State NG 3) |  |  |  | 115 | 64.4 | 130 |
| GCGAGCGUACUUGCAGACAUGAGGAUCACCCAUGUAACUGGGUAGGAUAUGGUACCGUUUCGGUACCAGAAGGACUUAUGAAAG [JL SSNG3 1.50] (Eterna round: R96, puzzle: Same State NG 3) |  |  |  | 35 | 67 | 54.4 |
| GCGGAGAGGUAAGGAUAUCCAUGGAAGAAACAUGAGGAUCACCCAUGUAGGAAGAAGACUAGGAGGGAGAAGGUACCGGGACGC [AK SSNG2-V2-20.1] (Eterna round: R96, puzzle: Same State NG 2) |  |  |  | 26.2 | 29.2 | 40.5 |
| GCGGAGAGGUAAGGAUAUCCAUGGCAUAGACAUGAGGAUCACCCAUGUAGGAGACGAAUUAGAAGGGAGAAGGUACCGGGACGC [AK SSNG2-V2-19] (Eterna round: R96, puzzle: Same State NG 2) |  |  |  | 111 | 175 | 168 |
| GCGGAGAGGUCAGGAUAUCCAUGGAAGACACAUGAGGAUCACCCAUGUGGGAGGGAAACCAGGAGGGAGAAGGGACCGGGACGC [ssng2 v2 c] (Eterna round: R96, puzzle: Same State NG 2) |  |  |  | 10.3 | 11.4 | 13.3 |
